From patent US20170029907, “GENERALIZABLE ASSAY FOR VIRUS CAPSID ASSEMBLY” (Indiana University Research and Technology Corporation, published 2017) come the findings set out here.

In data set [1] the target is T1, HBV capsid protein Cp183 (Hepatitis B virus, UniProt P03146 P03146:1-183). In words: FRET increase; 0.1 uM DNA. To be noted: chain copies: dimer (stated); assembles into capsids; label: Cy3 and Cy5 at the two ends. On the procedure:
(§1) Assembly was monitored by fluorescence. All reactions were carried out at 21° C. For the Cy3 donor and Cy5 acceptor fluorophores, fluorescence emission spectra for FRET experiments was measured from 555-710 nm. For measuring FRET in titrations, donor and acceptor excitation wavelengths were 545 and 645 nm respectively. Acceptor emission was measured at 670 nm.
For comparison, DA was titrated with Cp183 and the results were compared to those obtained with GagΔ. FIGS. 4A and 4B show the spectra for HIV-1 GagΔ and HBV Cp183 respectively. Spectra obtained by titrating DA with GagΔ and Cp183 both show increases in FRET signal.

Another data set concerns the target T2, BMV capsid protein (Brome mosaic virus, UniProt P03602 P03602:1-189).
T2 sequence: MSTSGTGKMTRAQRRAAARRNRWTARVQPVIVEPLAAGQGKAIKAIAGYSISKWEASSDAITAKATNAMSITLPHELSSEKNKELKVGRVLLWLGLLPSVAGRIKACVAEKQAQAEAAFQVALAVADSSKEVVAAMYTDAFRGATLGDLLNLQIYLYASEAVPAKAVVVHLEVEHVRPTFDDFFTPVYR
The data set can be described thus: intermolecular FRET; 1 uM DNA; saturates at about 10 proteins per oligo. To be noted: chain copies: assembles into capsids; label: Cy3 (D27) or Cy5 (A27).

The target of data set [2] is T1, HBV capsid protein Cp183. The data set can be described thus: intermolecular FRET and light scattering; 1 uM DNA; maximum near 3:1 then signal falls by dilution. To be noted: chain copies: dimer (stated); assembles into capsids; label: Cy3 (D27) or Cy5 (A27). On the procedure: as §1
Using the optimized A:D ratio, we evaluated the sensitivity of this FRET assay for assembly. This was necessary to determine if reaction volumes and concentrations could be lowered to physiologically relevant levels. […] The minimum detectable concentration of DNA in these assays is 50 nM. Initial results shown in FIG. 1 are protein titrations of 1 μM DNA showing the assay works under more aggressive conditions. Assembly led to an increase in FRET, that was maximal at a specific protein concentration and then fell as more protein was added.

The target in data set [3] is T3, RRV capsid protein (Ross River virus, UniProt P08491 P08491:1-270). In words: intermolecular FRET; 1 uM DNA; saturates at 4 proteins per oligo. To be noted: chain copies: assembles into core-like particles; about 4 per oligonucleotide; label: Cy3 (D27) or Cy5 (A27).
Data set [4] deals with T3, RRV capsid protein. In words: light scattering, DLS and EM; 50-170 mM NaCl; ionic strength dependent pseudo-critical concentration. To be noted: chain copies: assembles into core-like particles; about 4 per oligonucleotide.

T3 sequence (P08491 1-270, one chain of several): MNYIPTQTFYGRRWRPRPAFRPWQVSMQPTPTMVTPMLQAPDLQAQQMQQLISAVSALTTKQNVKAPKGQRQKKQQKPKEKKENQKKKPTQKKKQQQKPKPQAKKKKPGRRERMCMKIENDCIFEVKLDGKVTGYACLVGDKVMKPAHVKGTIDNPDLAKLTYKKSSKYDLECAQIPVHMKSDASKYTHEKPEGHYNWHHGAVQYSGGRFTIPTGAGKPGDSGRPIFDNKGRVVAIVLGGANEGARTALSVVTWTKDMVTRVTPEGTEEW
T1 sequence (P03146 whole entry, one chain of several): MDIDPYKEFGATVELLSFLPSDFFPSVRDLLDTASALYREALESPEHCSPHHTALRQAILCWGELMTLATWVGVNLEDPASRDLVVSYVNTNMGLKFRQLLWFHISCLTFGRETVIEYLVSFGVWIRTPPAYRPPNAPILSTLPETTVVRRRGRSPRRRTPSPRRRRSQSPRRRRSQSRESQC

B1: DA 40-mer (ssDNA)
DNA: TGTGTGTGTGAAAAAAAAAAAAAAAAAAAATGTGTGTGTG
In the case of B1, in the data set with HBV capsid protein Cp183 [1], the binding result is given as “binds”.

B2: 27-mer D27/A27 1:1 mix (ssDNA)
DNA: TACCCACGCTCTCGCAGTCATAATTCG
Regarding B2, the binding result with BMV capsid protein, with HBV capsid protein Cp183 [2] and in the data set with RRV capsid protein [3] was “binds” each time.

B3: unlabeled 27-mer (ssDNA)
DNA: TACCCACGCTCTCGCAGTCATAATTCG
In the case of B3, the binding result in the data set with RRV capsid protein [4] is given as “binds”.
